Results from IntAct's records for PubMed 20417604.

B1: Ataxin-1 (Homo sapiens), P54253 (parent)
chain: MKSNQERSNECLPPKKREIPATSRSSEEKAPTLPSDNHRVEGTAWLPGNPGGRGHGGGRHGPAGTSVELGLQQGIGLHKALSTGLDYSPPSAPRSVPVATTLPAAYATPQPGTPVSPVQYAHLPHTFQFIGSSQYSGTYASFIPSQLIPPTANPVTSAVASAAGATTPSQRSQLEAYSTLLANMGSLSQTPGHKAEQQQQQQQQQQQQHQHQQQQQQQQQQQQQQHLSRAPGLITPGSPPPAQQNQYVHISSSPQNTGRTASPPAIPVHLHPHQTMIPHTLTLGPPSQVVMQYADSGSHFVPREATKKAESSRLQQAIQAKEVLNGEMEKSRRYGAPSSADLGLGKAGGKSVPHPYESRHVVVHPSPSDYSSRDPSGVRASVMVLPNSNTPAADLEVQQATHREASPSTLNDKSGLHLGKPGHRSYALSPHTVIQTTHSASEPLPVGLPATAFYAGTQPPVIGYLSGQQQAITYAGSLPQHLVIPGTQPLLIPVGSTDMEASGAAPAIVTSSPQFAAVPHTFVTTALPKSENFNPEALVTQAAYPAMVQAQIHLPVVQSVASPAAAPPTLPPYFMKGSIIQLANGELKKVEDLKTEDFIQSAEISNDLKIDSSTVERIEDSHSPGVAVIQFAVGEHRAQVSVEVLVEYPFFVFGQGWSSCCPERTSQLFDLPCSKLSVGDVCISLTLKNLKNGSVKKGQPVDPASVLLKHSKADGLAGSRHRYAEQENGINQGSAQMLSENGELKFPEKMGLPAAPFLTKIEPSKPAATRKRRWSAPESRKLEKSEDEPPLTLPKPSLIPQEVKICIEGRSNVGK

Variants of: B1
Conditions: with wdfy3_human WDFY3, Q8IZQ1
Sequence of wdfy3_human WDFY3, Q8IZQ1 (Q8IZQ1 whole entry): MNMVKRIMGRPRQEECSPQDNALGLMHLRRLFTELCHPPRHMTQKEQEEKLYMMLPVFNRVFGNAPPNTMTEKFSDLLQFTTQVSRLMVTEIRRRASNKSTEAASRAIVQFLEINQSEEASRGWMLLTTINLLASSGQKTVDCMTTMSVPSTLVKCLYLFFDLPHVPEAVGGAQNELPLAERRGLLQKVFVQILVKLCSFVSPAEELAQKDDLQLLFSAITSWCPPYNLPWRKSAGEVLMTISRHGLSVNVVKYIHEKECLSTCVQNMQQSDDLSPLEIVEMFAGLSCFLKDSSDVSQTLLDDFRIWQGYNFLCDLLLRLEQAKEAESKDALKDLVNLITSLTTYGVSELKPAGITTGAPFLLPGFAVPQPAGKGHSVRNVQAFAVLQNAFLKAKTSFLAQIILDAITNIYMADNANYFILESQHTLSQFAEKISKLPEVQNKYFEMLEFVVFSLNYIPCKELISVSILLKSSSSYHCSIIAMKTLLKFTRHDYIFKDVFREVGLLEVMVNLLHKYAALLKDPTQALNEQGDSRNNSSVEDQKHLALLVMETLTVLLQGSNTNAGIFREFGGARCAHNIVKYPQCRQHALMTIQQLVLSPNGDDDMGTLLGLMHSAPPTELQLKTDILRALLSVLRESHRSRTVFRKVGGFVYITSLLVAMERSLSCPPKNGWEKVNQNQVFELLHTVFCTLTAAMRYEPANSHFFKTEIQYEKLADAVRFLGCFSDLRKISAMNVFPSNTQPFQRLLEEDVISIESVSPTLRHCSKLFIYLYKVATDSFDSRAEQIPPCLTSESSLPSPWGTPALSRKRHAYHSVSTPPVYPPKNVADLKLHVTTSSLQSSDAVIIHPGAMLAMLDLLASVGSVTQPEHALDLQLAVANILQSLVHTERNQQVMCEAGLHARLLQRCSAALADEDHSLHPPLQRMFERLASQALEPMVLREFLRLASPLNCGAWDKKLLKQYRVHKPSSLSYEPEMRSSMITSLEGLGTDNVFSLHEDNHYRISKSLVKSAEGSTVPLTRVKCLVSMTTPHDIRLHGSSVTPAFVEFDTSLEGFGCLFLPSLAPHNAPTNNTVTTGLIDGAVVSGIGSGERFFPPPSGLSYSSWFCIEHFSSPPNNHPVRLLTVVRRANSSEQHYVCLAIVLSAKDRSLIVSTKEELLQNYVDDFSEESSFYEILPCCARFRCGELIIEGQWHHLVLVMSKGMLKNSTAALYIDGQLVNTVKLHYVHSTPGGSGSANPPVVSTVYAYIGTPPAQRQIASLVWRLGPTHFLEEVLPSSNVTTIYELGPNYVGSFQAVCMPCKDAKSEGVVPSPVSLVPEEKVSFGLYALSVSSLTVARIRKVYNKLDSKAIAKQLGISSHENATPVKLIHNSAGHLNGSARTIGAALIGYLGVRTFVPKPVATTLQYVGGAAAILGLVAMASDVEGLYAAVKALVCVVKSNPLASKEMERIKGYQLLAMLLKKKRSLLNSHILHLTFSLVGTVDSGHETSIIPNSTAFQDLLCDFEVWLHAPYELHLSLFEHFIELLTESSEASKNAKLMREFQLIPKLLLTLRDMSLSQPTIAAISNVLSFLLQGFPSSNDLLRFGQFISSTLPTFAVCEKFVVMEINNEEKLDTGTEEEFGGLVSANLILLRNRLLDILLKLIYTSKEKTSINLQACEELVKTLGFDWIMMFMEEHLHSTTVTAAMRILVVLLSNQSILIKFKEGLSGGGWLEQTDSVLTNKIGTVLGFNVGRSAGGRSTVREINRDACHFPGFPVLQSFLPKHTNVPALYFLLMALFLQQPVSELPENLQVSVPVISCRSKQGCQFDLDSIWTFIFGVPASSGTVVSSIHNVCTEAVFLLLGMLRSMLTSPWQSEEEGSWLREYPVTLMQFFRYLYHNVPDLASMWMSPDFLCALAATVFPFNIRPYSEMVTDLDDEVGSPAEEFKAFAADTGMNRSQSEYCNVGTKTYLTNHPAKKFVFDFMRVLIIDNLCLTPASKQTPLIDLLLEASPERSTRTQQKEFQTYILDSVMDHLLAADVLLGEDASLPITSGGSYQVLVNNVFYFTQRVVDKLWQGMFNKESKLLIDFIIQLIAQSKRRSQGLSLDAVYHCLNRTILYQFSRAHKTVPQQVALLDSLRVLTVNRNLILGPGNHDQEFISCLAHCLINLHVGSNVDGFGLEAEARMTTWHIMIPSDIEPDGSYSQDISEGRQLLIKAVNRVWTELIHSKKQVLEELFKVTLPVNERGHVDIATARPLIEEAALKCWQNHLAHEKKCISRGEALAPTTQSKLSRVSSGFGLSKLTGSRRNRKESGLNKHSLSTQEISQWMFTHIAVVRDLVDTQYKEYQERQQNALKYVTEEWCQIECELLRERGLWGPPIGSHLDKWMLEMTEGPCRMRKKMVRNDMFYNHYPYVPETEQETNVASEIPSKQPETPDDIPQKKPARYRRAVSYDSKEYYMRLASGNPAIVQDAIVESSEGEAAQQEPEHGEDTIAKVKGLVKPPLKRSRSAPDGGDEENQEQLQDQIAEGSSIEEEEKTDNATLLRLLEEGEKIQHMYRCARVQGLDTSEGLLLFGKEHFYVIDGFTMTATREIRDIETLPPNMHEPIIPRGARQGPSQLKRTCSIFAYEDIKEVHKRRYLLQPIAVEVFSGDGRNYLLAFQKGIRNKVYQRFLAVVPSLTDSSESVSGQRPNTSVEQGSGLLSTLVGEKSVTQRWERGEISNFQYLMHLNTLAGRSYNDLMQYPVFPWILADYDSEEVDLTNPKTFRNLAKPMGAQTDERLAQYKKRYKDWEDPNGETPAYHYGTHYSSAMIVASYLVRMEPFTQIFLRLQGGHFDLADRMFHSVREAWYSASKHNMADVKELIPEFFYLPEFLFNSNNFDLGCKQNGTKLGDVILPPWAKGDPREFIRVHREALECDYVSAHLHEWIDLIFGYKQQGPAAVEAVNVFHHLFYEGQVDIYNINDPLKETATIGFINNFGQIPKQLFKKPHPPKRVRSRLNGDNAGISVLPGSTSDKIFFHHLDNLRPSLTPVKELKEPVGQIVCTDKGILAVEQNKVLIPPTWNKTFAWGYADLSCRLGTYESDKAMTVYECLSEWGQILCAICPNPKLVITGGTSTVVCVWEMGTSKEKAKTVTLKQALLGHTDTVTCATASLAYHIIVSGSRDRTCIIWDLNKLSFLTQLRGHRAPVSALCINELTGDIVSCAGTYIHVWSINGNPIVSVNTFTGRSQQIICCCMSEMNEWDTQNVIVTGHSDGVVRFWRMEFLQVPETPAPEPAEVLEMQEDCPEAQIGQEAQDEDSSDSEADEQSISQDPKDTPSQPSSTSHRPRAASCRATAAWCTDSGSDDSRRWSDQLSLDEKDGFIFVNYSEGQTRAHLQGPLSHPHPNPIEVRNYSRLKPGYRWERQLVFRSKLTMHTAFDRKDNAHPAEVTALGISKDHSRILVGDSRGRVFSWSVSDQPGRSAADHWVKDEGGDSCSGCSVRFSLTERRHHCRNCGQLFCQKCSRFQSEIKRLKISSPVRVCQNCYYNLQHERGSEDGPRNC

effect of a mutation on the interaction	Variant
disrupting interaction	K771T
